Results: patent US20110086089A1, “USE OF P27KIP1 FOR THE PREVENTION AND TREATMENT OF HEART FAILURE” (UNIVERSITY HEALTH NETWORK, priority 2008, published 2011)

Test system: p27 phosphorylation at S83 and T187 in cardiomyocytes
Assay: p27 phosphorylation at S83 and T187 in Ang II-treated cardiomyocytes (Western blot)
Assay type: cell-based, rat
Conditions: Ang II 4 h; lentiviruses 72 h; DMAT 20 μM pre-incubated 30 min; TAT-conjugated CK2-alpha-prime 2.5 μg/ml 1 h
Description: FIG. 2 is a series of graphs and blots showing Ang II triggers CK2-alpha-prime-dependent phosphorylation of p27 on S83 and T187 in cardiomyocytes. (A) p27 is a substrate of CK2-alpha-prime. […] In vitro kinase assays employing recombinant wt.p27 (1 μg) or phosphorylation site mutants of p27 as substrates were incubated with recombinant CK2-alpha-prime/beta (200 ng). Aliquots of the reaction mixtures were resolved on SDS-PAGE, electrotransferred to nitrocellulose membranes, and the amount of incorporated radioactive [^32P}-label into p27 was quantified with a PhosphorImager and ImageJ software. Individual membranes were probed with anti-CK2-alpha-prime, anti-p27 (input), or phosphorylation site specific antibodies to p27. […] Samples were resolved on SDS-PAGE, transferred to nitrocellulose-membranes, and the amount of incorporated radioactive label into histones was quantified with a PhosphorImager and ImageJ. The input amount of each CK2-alpha-prime and p27 protein used in the kinase reaction mixtures was monitored by immunoblot analysis employing anti-His. […] Biochemically fractionated extracts corresponding to 4×10^5 cells per lane were analyzed by immunoblotting employing antibodies as indicated on the left. […]

B1: kd.CK2-α′: catalytically-inactive kinase-dead CK2-alpha-prime, point mutation K69M; TAT-conjugated protein in mice, lentivirally expressed in cardiomyocytes (protein)
chain: MPGPAAGSRARVYAEVNSLRSREYWDYEAHVPSWGNQDDYQLVRKLGRGKYSEVFEAINITNNERVVVMILKPVKKKKIKREVKILENLRGGTNIIKLIDTVKDPVSKTPALVFEYINNTDFKQLYQILTDFDIRFYMYELLKALDYCHSKGIMHRDVKPHNVMIDHQQKKLRLIDWGLAEFYHPAQEYNVRVASRYFKGPELLVDYQMYDYSLDMWSLGCMLASMIFRREPFFHGQDNYDQLVRIAKVLGTEELYGYLKKYHIDLDPHFNDILGQHSRKRWENFIHSENRHLVSPEALDLLDKLLRYDHQQRLTAKEAMEHPYFYPVVKEQSQPCADNAVLSSGLTAAR
modifications: left off: small tags and cut ends
notes: TAT-conjugated protein in mice, lentivirally expressed in cardiomyocytes
For B1, the “S83/T187 phosphorylation of p27 in cardiomyocytes” value was “abolished”.
